The source of these data is patent publication US20250084163A1 (SORRENTO THERAPEUTICS, published 2025).

Experiment [1] has as its target T1, Recombinant truncated human his-tag ROR1 extracellular domain protein (human, UniProt Q01973 30-403).
T1 construct: the tag is part of the entry; also called his-tagged ROR1 protein; human ROR1 ECD
As to the kind of experiment: SPR (Biacore T200), antibody captured by anti-human Fc, his-tagged ROR1 ECD as analyte. The method, then:
Binding kinetics of anti-ROR1 antibodies with his-tagged ROR1 protein were measured using surface plasmon resonance (SPR). The anti-ROR1 antibodies tested included proprietary antibodies RO6D8 wt, RO6D8-s10, RO6D8-jlv1011, and RO6D8-011. Anti-human fragment crystallizable region (Fc region) antibody was immobilized on a CM5 sensor chip to approximately 8,000 RU using standard N-hydroxysuccinimide/N-Ethyl-N′-(3-dimethylaminopropyl) carbodiimide hydrochloride (NHS/EDC) coupling methodology. The anti-ROR1 antibodies (1-2 μg/mL) were captured for 60 seconds at a flow rate of 10 μL/minute. The his-tagged ROR1 protein included amino acid 30 to amino acid 403 of SEQ ID NO: 1 (i.e., SEQ ID NO:2) (Acro Biosystems; Cat. No. RO1-H522Y). This polypeptide was serially diluted in a running buffer of 0.01 M HEPES pH 7.4, 0.15 M NaCl, 3 mM EDTA, 0.05% v/v Surfactant P20 (HBS-EP+) and run at 6 different dilutions. All measurements were conducted in HBS-EP+ buffer with a flow rate of 30 μL/minute. A 1:1 (Langmuir) binding model was used to fit the data. All BIACORE assays were performed at room temperature using Biacore T200 surface plasmon resonance (GE Healthcare).
For orientation: In SPR one partner is held on a chip, and binding of the other changes the refractive index at the surface.

In experiment [2] the target is T2, Recombinant truncated human his-tag ROR1 Ig-like domain (human, UniProt Q01973 39-151).
T2 construct: also called human his-tag ROR1 Ig-like domain C-his; human ROR1 Ig-like domain
The experiment is described as follows: ELISA, antibody coated at 5 ug/mL, his-tagged antigen at 2 ug/ml, anti-his HRP. How it is done: (§1) Cross-reactivity of the anti-human ROR1 antibodies with his-tagged ROR1 recombinant protein from human and mouse, were analyzed by ELISA assay. The antibodies 5 μg/mL (RO6D8wt, RO6D8-s10, RO6D8-glv1011, RO6D8-jlv1011, RO6D8-1v1011) were diluted with PBS buffer and coated on a plate at 50 μL per well or control buffers coated on a plate at 50 μL per well. The plate was washed three times with 150 μL/well of PBS-T (PBSIX supplemented with 0.05% Tween 20). Subsequently, the plate was blocked with 100 μL/well of blocking buffer (blocker Casein in PBS from Bioworld, Cat. No. 40320020-2) for 1 hour at RT. The plates were washed 3 times with 150 μL/well of PBS-T, after blocking. Recombinant mouse his-tag ROR1, 2 μg/ml (Acro Biosystems Cat. No. RO1-M5221, Lot: 1201-48ESI-65), human his-tag ROR1 extracellular domain (SEQ ID NO:2), 1 μg/ml (Acro Biosystems Cat. No. RO1-H522Y, lot: C81-76KF1-FR), human his-tag ROR1 Ig-like domain C-his, 2 μg/ml (Acro Biosystems Cat. No. RO1-H5221, Lot: B311-59SSI-CA), human his-tag CD138, 2 μg/ml (Sino Cat. No. 11429-H08H, Lot: LCL07NO0412) (negative control antibody), and Casein/PBS buffer (control). 30 μl of his-tagged ROR1 antigen, his tagged CD138 or Casein/PBS buffer were added to the plate, per well, and incubated for 1 hour at room temperature. The plate was washed three times with 150 μL/well of PBS-T and anti 6x-his (SEQ ID NO:58) tag antibody HRP (Abcam; Cat. No. Ab1187) was incubated at dilution 1:5,000, 30 μL/well for 1 hour at RT. […] The signal was stopped at the desired saturation point by using 15 μL/well of 2 N sulfuric acid (H₂SO₄) stop solution and read on a plate reader at 450 nm.
(An ELISA detects its analyte on a solid surface through an enzyme-linked reagent.)

The target of experiment [3] is T3, Human ROR1 protein (UniProt Q01973-1) (human, UniProt Q01973 30-937).
T3 construct: Endogenous ROR1 of human tumour cell lines; also called ROR1 on A549, Raji (RAJI) and MCF7 cells; cognate antigen expressed at the surface of cells
As to the kind of experiment: flow cytometry on A549 cells (ROR1+). How it is done:
Flow cytometry was used to test antibody binding to adenocarcinomic human alveolar basal epithelial cell line A549 (ROR1+) and immortalized line of human T lymphocyte cell line Jurkat (ROR1 negative), using various anti-ROR1 antibodies. The cells were prepared at concentration of 1×10⁶/ml in FACS buffer (PBS, 2% FBS, and 0.05% azide). Cells were plated at 30 μl/well in a V-bottom 96-well plate. Anti-ROR1 antibodies (with RO6D8wt used as control) were diluted in FACS buffer (5X serial dilution starting from 50 μg/ml) and 30 μl was added to each well with either A549 or Jurkat cells for 60 min on ice. After incubation, the cells were centrifuged at 2000 rpm for 5 minutes, flip out supernatant. After 1 wash with 200 μL/well of FACS buffer, cells were incubated with an AF647 goat anti-human Fab2 antibody (Jackson ImmunoResearch; Cat. No. 109-606-088) (dilution 1:2000 in FACS buffer) at 50 μL/well for 40 min on ice. After incubation, the cells were centrifuged at 2000 rpm for 5 minutes, flip out supernatant. After 1 wash with 200 μL/well of FACS buffer cells were resuspended in 30 μl of FACS buffer and acquired by flow cytometry using IntelliCyt readout.

For experiment [4], the target named is T1, Recombinant truncated human his-tag …. As to the kind of experiment: ELISA, antibody coated at 5 ug/mL, his-tagged antigen at 1 ug/ml, anti-his HRP. The method, then: as §1, with “(control).” for “(control). 30 μl of his-tagged ROR1 antigen, his tagged CD138 or Casein/PBS buffer were added to the plate, per well, and incubated for 1 hour at room temperature. The plate was washed three times with 150 μL/well of PBS-T and anti 6x-his (SEQ ID NO:58) tag antibody HRP (Abcam; Cat. No. Ab1187) was incubated at dilution 1:5,000, 30 μL/well for 1 hour at RT.”

Experiment [5] concerns the target T3, Human ROR1 protein (UniProt Q01973-1). The experiment is described as follows: flow cytometry on A549, Raji and MCF7 cells (ROR1+). The method, then: Flow cytometry was used to test antibody binding to adenocarcinomic human alveolar basal epithelial cell line A549 (ROR1+), Burkitt's lymphoma cell line RAJI (ROR1+), breast cancer cell line (ROR1+), A549 ROR1-KO cell line (ROR1 knockout) which is ROR1 negative, and Duke's type B adenocarcinoma cell line LS174T (ROR1 negative).
The cells were re-suspended in 120 µL/well of FACS buffer containing Goat anti-human IgG AF647 (1:2,000, Southern Biotech, Cat No. 2040-31, Lot No. D1817-T817C) and plate was incubated for 20 minutes at 4° C. in the dark.
FIGS. 4A-E show anti-human ROR1 antibodies RO6D8-s10, RO6D8-jlv1011, RO6A-a7gm and RO6A-a8gm binding to ROR1-expressing A549 (FIG. 4A), Raji (FIG. 4B), and MCF7 (FIG. 4C) cells; and ROR1 negative A549 ROR1-KO (FIG. 4D) and LS174T (FIG. 4E) cells.

Changes are numbered by the printed parent chain.

T3 sequence (Q01973 30-937 limits assumed, one chain of several): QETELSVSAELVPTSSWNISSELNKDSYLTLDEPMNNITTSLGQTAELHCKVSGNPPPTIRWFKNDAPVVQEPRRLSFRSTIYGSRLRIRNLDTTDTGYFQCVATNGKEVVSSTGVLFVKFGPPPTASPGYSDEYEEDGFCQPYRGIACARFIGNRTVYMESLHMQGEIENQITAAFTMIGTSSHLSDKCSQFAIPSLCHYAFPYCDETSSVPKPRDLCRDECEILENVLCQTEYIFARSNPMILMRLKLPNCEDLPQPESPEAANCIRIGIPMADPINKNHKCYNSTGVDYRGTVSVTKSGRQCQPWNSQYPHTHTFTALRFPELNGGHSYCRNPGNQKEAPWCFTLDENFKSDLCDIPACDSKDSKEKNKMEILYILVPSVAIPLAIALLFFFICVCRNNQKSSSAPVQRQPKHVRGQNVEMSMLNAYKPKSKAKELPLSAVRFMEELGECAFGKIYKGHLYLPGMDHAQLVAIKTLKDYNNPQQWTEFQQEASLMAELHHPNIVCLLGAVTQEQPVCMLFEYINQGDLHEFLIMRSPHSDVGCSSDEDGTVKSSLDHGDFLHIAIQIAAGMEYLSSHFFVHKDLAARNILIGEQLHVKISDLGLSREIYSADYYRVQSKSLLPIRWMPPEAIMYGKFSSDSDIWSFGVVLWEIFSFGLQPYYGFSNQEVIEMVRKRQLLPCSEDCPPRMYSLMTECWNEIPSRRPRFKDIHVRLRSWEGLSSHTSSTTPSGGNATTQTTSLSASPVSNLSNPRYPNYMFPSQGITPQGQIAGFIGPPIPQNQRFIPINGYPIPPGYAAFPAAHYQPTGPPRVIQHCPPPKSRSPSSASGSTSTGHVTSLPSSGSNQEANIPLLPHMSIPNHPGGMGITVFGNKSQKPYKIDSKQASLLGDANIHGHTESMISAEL
T2 sequence (Q01973 other isoform, or with tags, fused parts or gaps limits assumed): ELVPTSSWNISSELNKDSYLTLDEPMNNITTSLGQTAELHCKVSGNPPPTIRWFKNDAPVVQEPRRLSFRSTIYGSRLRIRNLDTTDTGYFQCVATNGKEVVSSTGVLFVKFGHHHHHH
T1 sequence (Q01973 other isoform, or with tags, fused parts or gaps limits assumed): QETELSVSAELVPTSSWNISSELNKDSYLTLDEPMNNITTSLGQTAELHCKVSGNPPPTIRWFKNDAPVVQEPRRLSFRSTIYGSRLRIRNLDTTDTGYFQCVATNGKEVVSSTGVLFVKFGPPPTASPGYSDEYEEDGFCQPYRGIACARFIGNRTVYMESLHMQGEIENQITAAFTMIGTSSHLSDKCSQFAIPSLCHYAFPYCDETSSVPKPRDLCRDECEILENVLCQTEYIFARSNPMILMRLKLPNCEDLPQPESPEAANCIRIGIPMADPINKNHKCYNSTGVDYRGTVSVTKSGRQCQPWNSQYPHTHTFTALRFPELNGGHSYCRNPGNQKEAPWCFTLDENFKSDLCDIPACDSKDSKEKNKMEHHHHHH

B1: RO6D8-s10 (antibody, V domains shown)
VH: QVQLVQSGAEVKKPGASVKVSCKASGYTFTNYYMHWVRQAPGQGLEWMGIINPSGGSTSYAQKFQGRVTMTRDTSTSTVYMELSSLRSEDTAVYYCARSSRSSYYLWVLDLWGQGTTVTVSS
VL: AIQMTQSPSSLSASVGDRVTITCRASQGVSTEIAWYQQKPGKAPKLLIYAASSLQSGVPSRFSGSGSGTDFTLTISSLQPEDFATYYCQQFNSYPITFGQGTRLEIK
Turning to B1, the binding result in experiment [1], in experiment [2] and in experiment [3] was “binds” each time.

B2: RO6D8-jlv1011 (antibody, V domains shown)
VH: QVQLVQSGAEVKKPGASVKVSCKASGYTFTSKYYHWVRQAPGQGLEWMGIINPTSGSTSYAQKFQGRVTMTRDTSTSTVYMELSSLRSEDTAVYYCARDSSRYSGWYFDLWGQGTTVTVSS
VL: B1 VL with M4L, F91Y, N92Y, S93G, T97A
Take B2: the binding result in experiment [1], in experiment [2] and in experiment [3] was “binds” each time.

B3: RO6D8-011 (antibody, V domains shown)
VH: B1 VH with S54T, G55S, S57R, S99D, R101S, S103W, Y105S, L106G, V108Y, L109F
VL: B1 VL with V29I, S30R, E32D, I33L, F91Y, N92Y, S93G, T97A
notes: it was captured by an anti-human Fc antibody in SPR; also called RO6D8-O11
With B3, the binding result in experiment [1] is on record as “binds”.

B4: RO6D8wt (antibody, V domains shown)
VH: B1 VH with S99D, R101S, S103W, Y105S, L106G, V108Y, L109F
VL: B1 VL with G28D, S30R, T31A, E32H, I33L
notes: it was captured by an anti-human Fc antibody in SPR, so it carries a human Fc; also called wildtype anti-human ROR1 antibody
Consider B4, for which the binding result in experiment [2], in experiment [4] and in experiment [3] was “binds” each time.

B5: RO6A-a8gm (antibody, V domains shown)
VH: QVQLVESGGGLVKPGGSLRLSCAASGFTFSDYYMTWIRQAPGKGLEWVSYISGSSAYSNYADSVKGRFTISRDNSKNTLYLQMNSLRAEDTAVYYCARDPLLYGWLTDWGQGTLVTVSS
VL: QSALTQPASVSGSPGQSITISCTGTSSDGGGYDSVSWYQQHPGKAPKLMIYDVNKRPSGVSGRFSGSKSGNTASLTISGLQAEDEADYYCSSFTSDVMVFGGGTKLTVL
notes: it was detected with goat anti-human IgG and compared with an IgG1 isotype control
On to B5, for which the binding result in experiment [5] is recorded as “binds”.
